In patent US20250064976A1 (BROAD INSTITUTE, published 2025):

Assays:
[1] = biological target: the molecule itself; test: capsid formation (homo-oligomer)
[2] = biological target: the molecule itself; test: TEM of the HA-immunoprecipitated VLP fraction from HEK293FT cells
[3] = biological target: the molecule itself; test: TEM of protein purified from E. coli

B1: human paraneoplastic antigen Ma2 (PNMA2), recombinant, purified from E. coli (other)
chain: ALALLEDWCRIMSVDEQKSLMVTGIPADFEEAEIQEVLQETLKSLGRYRLLGKIFRKQENANAVLLELLEDTDVSAIPSEVQGKGGVWKVIFKTPNQDTEFLERLNLFLEKEGQTVSGMFRALGQEGVSPATVPCISPELLAHLLGQAMAHAPQPLLPMRYRKLRVFSGSAVPAPEEESFEVWLEQATEIVKEWPVTEAEKKRWLAESLRGPALDLMHIVQADNPSISVEECLEAFKQVFGSLESRRTAQVRYLKTYQEEGEKVSAYVLRLETLLRRAVEKRAIPRRIADQVRLEQVMAGATLNQMLWCRLRELKDQGPPPSFLELMKVIREEEEEEASFENESIEEPEERDGYGRWNHEGDD
notes: Written as the monomer; Only residues 158-340 were resolved by cryo-EM; also called PNMA2 monomer; wild-type PNMA2
B1: binds [1].

B2: HA-tagged PNMA2 overexpressed in HEK293FT cells (other)
chain: ALALLEDWCRIMSVDEQKSLMVTGIPADFEEAEIQEVLQETLKSLGRYRLLGKIFRKQENANAVLLELLEDTDVSAIPSEVQGKGGVWKVIFKTPNQDTEFLERLNLFLEKEGQTVSGMFRALGQEGVSPATVPCISPELLAHLLGQAMAHAPQPLLPMRYRKLRVFSGSAVPAPEEESFEVWLEQATEIVKEWPVTEAEKKRWLAESLRGPALDLMHIVQADNPSISVEECLEAFKQVFGSLESRRTAQVRYLKTYQEEGEKVSAYVLRLETLLRRAVEKRAIPRRIADQVRLEQVMAGATLNQMLWCRLRELKDQGPPPSFLELMKVIREEEEEEASFENESIEEPEERDGYGRWNHEGDD
notes: also called HA-PNMA2; PNMA2-HA; not shown: HA tag at the N-terminus
B2: binds [2].

B3: PNMA2(340)-CCMV(30), engineered PNMA2 (other)
chain: MALALLEDWCRIMSVDEQKSLMVTGIPADFEEAEIQEVLQETLKSLGRYRLLGKIFRKQENANAVLLELLEDTDVSAIPSEVQGKGGVWKVIFKTPNQDTEFLERLNLFLEKEGQTVSGMFRALGQEGVSPATVPCISPELLAHLLGQAMAHAPQPLLPMRYRKLRVFSGSAVPAPEEESFEVWLEQATEIVKEWPVTEAEKKRWLAESLRGPALDLMHIVQADNPSISVEECLEAFKQVFGSLESRRTAQVRYLKTYQEEGEKVSAYVLRLETLLRRAVEKRAIPRRIADQVRLEQVMAGATLNQMLWCRLRELKDQGPPPSFLELMKVIREEEEEEASMSTVGTGKLTRAQRRAAARKNKRNTRVVQP
notes: Written as the monomer; The disordered C-terminal region of PNMA2 is replaced by the N-terminal 30 residues of CCMV; It was purified from E. coli and forms capsids like wild-type PNMA2; also called ePNMA2; PNMA2(1-340)-CCMV
B3: binds [3].
